Results as given in the DeepSol protein solubility set.

Assay: soluble on expression in E. coli; label from the status in PepcDB or PDB records

| Sequence | soluble on expression in E. coli |
| --- | --- |
| MAHHHHHHMSCITGITYLSSADINALSKGAGAGSSSGSRGTFVVREGDYVTGTITNVQGGSTPGIRLATSRGVTAFIAAVDICDEAMRVDLLEYIRRSEQLRDWNRHENGDARPPERAEAPVWLRRGALLQGTVSRCVWARCELHLQWCRPREELAGSGDDNGEKETAMPSYGNMERGGASSSVNSLNTAQVEQQVRVFATKMSRHPLFRDVSKNGAADMLRDKEIGESLLRPRTASVHRVVCEVKVGSNATNHWVISEERHANGQFYYKVEDRVVDRQWEFTDVDDFLCNFVEPMVKLIQSIRVHRRFEDSTEYVQAALDAQREVSGGFAYAFAETESKRHLYQVYSSGGNETYHFPLHITSEFIYIRLPFFHDGKASNKWVPCKSAEKVSETVKNYARAMSKRSVNGELH | soluble |
| MAHHHHHHMSDAAPGPAPAPVTAAVDAPPLPAPTKVKPPRKKPPRAEEANPRLLAPANGVAAQQQKQRDKEFATHKAHILTNLQTNACDLSPKGSLDAKCLPVMGVLNTHKDYVTTSSCSGRIALFHSIKHSEACGADDGTATPKPRMKRGENAALGWVFVKHGMLRPMEMAQVVGFLCGAPTTPEDVALDSAQMEKHAAHMASVSCSAHCHSAAPGSLLAEMYDGEVEGALVGARVSGDEVAALPVPTRGTVSLKMEPFVMHVQCRTMEAAKLLLSAVVSDSGFRNSGVVPPGKKIMCGIRSAAGLGLEVPVVVDGVNHVASQRAYVWALLGLANEKMEANEKKIKLLERSVAARVLPA | soluble |
| MAHHHHHHMSDKLEDIGEFVLVIGDFHSPMRNLGLPDCFKDLLKTDKIKHVLCTGNVGCNENLELLKNIADSVHITKGDMDNNFDFPEKINIKIGDFKISLVHGHQIIPWGDLNALLQWQKEYDSDIIISGHTHKNSINNFEGKYFINPGSATGAFQPWISNPTPSFILMAISKSSIVVYVYEEKNGKMNVEMSELRKQ | soluble |
| MAHHHHHHMSDLRRVESLNADTFRRLNATSVVKSFWHTQLRAATAASRGAKDDSLATANEETPVATRKLRSAASSAEKSAGGLTDSTVYSSSSSSSNSRLSVSATLPGFPSPTETRRRLRAAALSAERHRAEESDEEKPDPVARTLFQNFLLQEYDALDSRPVLTVVLDLDETLVSNRDSGATGAILRPYCLHMLNALRHMQGLEVVLWTASTKETAAPVIRQLSQSGPVFDDVICRNSSWFTEPLHTKDLRLLGRDMSRVIIFDNSTACCKLNPRNAVIVDDFRGVRNTSDAALVNVYYIIERSFNGCCAGVSVLETLVKLAVEKQLCMPEVLHLPESWRHIPLREIAPLKVPPHGIFFRAHSTPLNDSIMQHWTV | soluble |
| MAHHHHHHMSFKPKIIVCSSPAELSGVACKKIVDIIHASERTNWPLSIALSGGSTPKMLYSRLHEEHLHLLKEERALRFFFGDERLVPADAAESNYNMARQALLHDIPEDLVVPVDVGCVGEVSNVACNDAVKAADAYEKRIDLLLGTQKVEGMEAEIPVFDIVLLGLGSDGHTASIFHGSQAESEMHRAVSVGFPSPTMSPKVWRVTLTPITIIHARHVILLATGKEKKCVLNGIIADTPTEVPVSRFLRNCKGDVTFILDREIAENLTC | soluble |
| MAHHHHHHMSKKEAISTPRKSKKAEVVIEGCVTIGSKQLLPSALDESRREQLSKQFDDIIEAHVAIDGGIADPVAAKIKELPTLSVGFIARAMGLNLSNDQVLSLVEMVEERDTVSRGCVPVGPLKEIIVGALMSGVITRQDSVAPTSNRKKRHSVSENRPLMHVSRDSEELIYAAFRTLDVGNRGYMEAEELRHLFRSGLEPFTDEEMENMIAAAADPQNGLIFYEDFVDVLANE | soluble |
| MAHHHHHHMSLQAGGVVNGVIPGVVPPHDRTQEVCKYFVNGGCLRGANCPYLHELPDERHLDVNGLGFILNPNVHNAQKTVASPQTQVAASTPSQPLKASGSSFTMMLNNQNASQSRVFSPTKAAKHQPPSMSGSSSASPQTMQMGKLPAPPKYNPPEPYLELNLPPALAFPLKVPAKDTTATLTHLMLQN | not soluble |
| MAHHHHHHMSNQGDFNTYIYIPVKCNESIKKRCELCFDVLFKLIEMKHKECYNKSKEKNLLCHNDINKGEIHKHIYYQLYKLNEHIKENNIEKDFKEPLHITISGSLNLKRYMINSFINKIKEELKNQNSFYLFFRNEVDLYKSQKNTKYFCSYTVKEDQQELYLNTLKEKINKILNEFDLKDTHLNRIYHLSLAYTNINLDVLLEKENKKCVEEETFFWPNINELILNKDIKENRLDDLYIYVNCIHIRIGYKLYKIPFKSFDDNLNVSDSYDSYMSSTDE | not soluble |
| MAHHHHHHMSSPERGASPPPAEEDKKEKRVIIILEGAHLQLIETKRYIYELANSMKHKHLLRDKKKEEEIRNFRPDILHQCLIHLLESALNKYGLLQVYIKTHDNQLFFVSSNLKIPKTYDQFESLMVTFLRKYKIKANEKNLCLLKFLKNDYNAILPINGKKIGLSVKGRKVHLPDYVQNFQNENMPVTFFIGAVAYSNPITKLENLDDNISISEFSLSAATCCSTICSEFENLWGVF | soluble |
| MAHHHHHHMSSSAVPAYEGKQKVYALLNGTFHAAIVLEVAEDATEGGFLYYVRYVEQDSRLDQWLQASDIKERHQGRTHHGSSCTHQQYTPSGIKTRRQSHVTEQQNAETAVLTGEGVGMPTEVSANAKGGGAAPHLVKVSKTRARRDSAFFSRTKNIYSICMGPHEVETWYFSPYHLARPEVQQRLQAASQCVTGSTELQLVQSTTSPGGTSGVSTGIADVGGGAGGTGNVSVGAGGSGRGSGAGMRQWPIATRSFSLHICPYCLRPFLDNAAVVRHLQQDCLRHPPGNEIYRDPVRRLVVLELDGSLEPTFCEHLALLSKLFLEHKALDHDMTPFLFYVLCSVETHGLQVLGYFSKEKQTPEPYNLSCILVLPQYQSRGIGRFLIELSYELSRREGKVGTPEKPLSDLGEKLYLSYWADSVTMAIARAMEEGHCVSVDYLVQATAMIQADVIRALQHQKLLNGHQLTISEDIVERCYTKRLTKERDITSYTFYTHLLSWAPGFYEEFRGVPPAPTFVPWRDPSAPHSRTGG | not soluble |
| MAHHHHHHMSSSDGQGMRAVILVGGFGTRLRPLTLTTPKPLVPFCNKPMIIHQIEALKAVGVTEVILAVAYRPEAMKEQMDEWSRKLGVLFVFSVEEEPLGTAGPLALARDILMQDDKPFFVLNSDVTCPFPMQELLDFHKAHGGEGTIMVSQVTQWEKYGVVVYSPQNYQIERFVEKPSSFLGDRINAGIYIFNKSILDRIPPCRTSIEKEIFPSMAAEGQLYAFNLEGFWMDIGQPKDYILGMTKYIPFLVHSNRETEKLHTEATKHQRGGRFTVIGASLIDPSAKIGDGAVIGPYASIGANCVIGESCRIDNAAILENSKVGKGSMVSRSIVGWNNRIGSWCHIKDISVLGDDVEVEDGVVLIGTKVLPNKDVGEHHFEPGIIM | soluble |
| MAHHHHHHMSSVLKADVKEYIPSWANKRSSGVNPAATSTNKNGFATSVPTSNVMTTHSGCTGINAQNFTSSPRAAAGLPLCSPTTALRLPTRMSPMHAPFPSVSISMNPNATDFVPHLTGANSLAPLPTSTADLAEEKERQQKQESHLSSSMKWTTTSTRKNITQPALPLAVKANFTPTFAPIYVEKTEEEILEISKRSSLKVGAAAFVPRRTLNRVMIAKPSPFSLTPATGEMTLGDLWCLFYLPAGLGECIRENTYDPTLVFRVDSVATFWKVFNNIPQPTEMKIGTLYFFRDGINPKWEDPGNRDGGILKMKLDSHCINDAWVYLLCRTIGESWSKSVRDTVNGVALKARERAYLLEVWVTEQSAELMMDISELLRPLLGDVFSVFYAPHSVTQERAAAAALAEKKRSRNNRRRW | not soluble |
| MAHHHHHHMSTEEQQVTQGTAHAPAPTTVKNKANSYYYWHQHEKDRAKVGDVAPMPTPYLVSKDDARAMAAPAVPTVSVSKYSWCDGDKFVSVYIDTVVPEGGTLDESSIEATFTGNSFKVTFATADEAGRTRAKSLSIRLSKRIDKDRSSTKVKPKTQQILVRLAKKVESVWLDLEGEASDQDSAADSEAADAE | soluble |
| MAHHHHHHMSVSVTEHRHGDMHHGTMRRRCLTRVLLAGPQGDLEALVSRMPRTWSLQQPLEMLQPEAVEEERANTASAAAATRTENAGLAGGKVPDKSAASVMISYSPVRATLPLAAAASEEERAEEDVVDVVAAVEEKAAMKADLHNSSGSAVEPPSLEGTPNVRLHAAQAPHEEQQEEGDCGVVVAHEAPALTEDGIPGADSAVVRAAEVAATLDIGSQLAEAAPCADRASLDSSAALPVSQVPE | not soluble |
| MAHHHHHHMTEGPLIVVGSVTLDQAARCYSPLSAPLRVRLEYAVLRPVVNPAWAATFEADIAYGRISVPLVQPTACSECMTPLNVPSSFLQHTPSDSIATLQPGELYQLDVHLETMELSKVEEKYVLQVGMLRLILLSGKTELADVNHVVQVKKNDDGELMRLIMNPLV | not soluble |
| MAHHHHHHMTSPALAPPQNTAEFWIKRLQLVPHPEGGYYSEVVRSAHKVDNEEGNRRHAYTTIYFLCTPESPSHLHRLCSDETWMYHAGDPLQLHVILKDPQDEDRIAAQPPAAPQAETDTADARPKYQVYRRVLVGARVERGELLQYTVPGGAIFGSSVAADGADGQAGYSLVSCIVSPGFDYRDFEIFTQAQLMELYPQHEAVIKQMAYETLPNHARLQTTEI | soluble |
| MAHHHHHHMTSVLAVVNARRVWRGASVLQPAVSSSYPPEVDALLVEGGRISFIGSTAEVQQRYGALVAAQPVDAAAAAPQPVEGGRPRTVSHRVIDCEHRHAVYPGFIDSHVHFLDGGRMLLAPQLGFATSRTQFTAIVRDFVEHRYNREEGGWVYGVGWSEAVLGCSPTREWLDEVSTKIHLVMYSKDIHSAVMNTAALRSCHIIPGAEDGEPLITSVEGGVIELNENGQPSGVLRDNAIQLAKRYAPAADTPANQRRALEAATEHLLSLGFTSVFSMMSTTYMDNVSEINFLAQMEREGAMRLRVRYGVPLSDVERLMDKFYRVMATDAAQSGRSDDFTLPYRFTMTPPAAGGGYLLLGAVKLFADGSLSSRTAAMNRPYGYNVTTEGDIDSDLDDAAISALLKERSGKQCQCGLLTMSRLELQCAIRVAHSHDLQCVVHAIGDRAVATVNRALCASADWLRERGAEAGVVAAVARFRADPRSRVEHCQHMSSMTKEVKRMAQYGIIASMQPCHLLFDGDYVDTLLGQRRKDTSYMWGTLLAAKIRVDLGSDWPVAPADVNDGLRGAVTRVPDVMTALAAEEAQYRSQQQAQPSADNTAACAATALRRYHDTWNPAECISMDAALRTYTYEGAHGMFMENYLGTLEVGKYADITVWTADWLDDAEMEQMAGVEGANARWWPRHREPHVAYTIVGGVVEYDRSH | not soluble |
| MAHHHHHHMVDYGEGGKNGSLDTVRQTLVCATRILMLAVSCKKVQLIYTLLPFMALIFKELLVSDDEERLRALFSDAKGQCALAGLRRSTANLSLLLDTEQDFTTLSSPWSFSYDTSEVGMKEIRSLTTFLVSGDSGLSEALEYVTTDCLRSGRLLTLYEIVRGFSLSPYGMMELKLDEVRDPHCGVSSHGEGSSVRGHFPHLPTHGELFLNLFTGIHEEFSLTRSPRCVGNELRRHRSSVVGAEVATTDFTLWTLAQSILYSTPGLPETLRHLRDHFAMWDECVLAINIILMCFTDVVHQLRRHSELVQALQHLLVDERNCGYKSFIRYCLENVS | not soluble |
| MAHHHHHHMVQRTLLDFVRKKDPSPNVINVDAESDEQDEAASRKRRMQGVREPALAFTKPRTENKDDICCSNNFSALITDSGWRAFLQPLTSTTNFRNIEQFIEGEKTKGKVILPPSDLIFSAFNSTPLDRLKVVLLGQDPYHNIGQAHGLCFSVLPGVRPPPSLLNMYKELTTDISGFKSPPHGYLQCWAEQGVLMLNATLTVEAHQANSHAKCGWQAFTDGVIRLLSEKHQRPIVFLLWGGFARKKITLIDQKRHLVIENAHPSPLSAAKWWGSRPFSKCNAALTQLGHSPIDWSIPMSVERRH | not soluble |
